For test [1], the target named is biotin-labeled surface proteins from THP-1 cells. Briefly: SPR; Biacore 3000; biotin-labeled surface proteins from THP-1 cells (3.2 kRU) or human monocytes (2.3 kRU) captured on a SA chip; 25 nM S100A8, S100A9 or S100A8/S100A9 injected 3 min at 20 uL/min in HBS-P with 1 mM Ca and 20 uM Zn; fit to a 1:1 model. A general note: In SPR one partner is held on a chip, and binding of the other changes the refractive index at the surface.

For test [2], the target named is biotin-labeled surface proteins from human monocytes. The test is described as above.

B1: S100A9 (recombinant human S100A9, produced at Active Biotech AB) (natural protein)
chain: MTCKMSQLERNIETIINTFHQYSVKLGHPDTLNQGEFKELVRKDLQNFLKKENKNEKVIEHIMEDLDTNADKQLSFEEFIMLMARLTWASHEKMHEGDEGPGHHHKPGLGEGTP
In general, Kd refers to the concentration at which binding is half-saturated. A high value points to weaker binding. In the case of B1, the Kd in test [1] came to 3.3 nM; in test [2] it was 2.3 nM.

(Values after publication PMC4678419.)
